Paper PMC3923783, “Competitive and Cooperative Interactions Mediate RNA Transfer from Herpesvirus Saimiri ORF57 to the Mammalian Export Adaptor ALYREF” (PLoS Pathogens, 2014)

B1: ORF57^8–120 (domain or fragment)
chain: GISSDDDFDSSDSSSDEEESDTSPQIMKSDVTMASPPSTPEPSPDVSASTSNLKRERQRSPITWEHQSPLSRVYRSPSPMRFGKRPRISSNSTSRSCKTSWADRVREAAAQRR
notes: Herpesvirus saimiri (HVS) ORF57 protein, residues 8-120; Construct of the NMR and fluorescence experiments; It may be the same construct as the hexa-histidine ORF57^8–120; also called ORF57 aa8–120; ORF57(aa8–120); source: E. coli BL21-RP, purified (gel filtration), as described previously [30]
B2: ALYREF fragment aa1–155 (ALYREF^1–155) (domain or fragment)
chain: not shown
notes: source: E. coli BL21-RP, purified (gel filtration), as described previously [30]

Key:
[1] = target: B2; assay: other fluorescence titration; blue shift of tryptophan emission (barycentric mean) with rising concentrations of equimolar ALYREF^1–155 and ORF57^8–120; buffer F (20 mM phosphate pH 6.2, 50 mM NaCl, 50 mM L-Arg+L-Glu, 5 mM EDTA, 1 mM TCEP); apparent Kd, quadratic equation or DynaFit; settings: both partners purified
ORF57^8–120 = target: B1; assay: other fluorescence titration; 14merS RNA titrated into 10 µM 1:1 ALYREF^1–155 - ORF57^8–120 mixture in buffer F; three-equation equilibrium model (DynaFit); the constant of ALYREF for the ORF57-RNA complex inferred from the thermodynamic cycle; apparent; settings: both partners purified

Question: Which Kd [1] does the source give for B1 here?
Answer: Its Kd is 2560 ± 200 nM.

Question: For B2, which “KD of ALYREF for the ORF57-RNA (14merS) complex, inferred from the thermodynamic cycle” value (ORF57^8–120) is on record?
Answer: The value was 0.52 µM.
